Measured values: the nanobody polyreactivity screen of Harvey et al. (2022)

Experiment: yeast display, Sf9 membrane polyspecificity reagent, FACS + sequencing; frameworks hold sequencing errors
Summary of the method: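 Genes from sorted yeast were amplified by colony PCR, read by MiSeq 2 × 250 sequencing and filtered on CDR length. These cells carried a synthetic nanobody library in Saccharomyces cerevisiae BJ5465 and were sorted by FACS into low and high (top ~1%) gates on anti-HA and streptavidin fluorescence. Polyreactivity is labelled according to the gate of origin.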
For “QVQLVESGGGLVQAGGSLRLSCAASGFTFFWNAMGWSRQAPGKERELVAVITFRGGDTYYADSVKGRFTISRDNAKNTVYLQMNSLKPEDTAVYYCNADWQSYGYLWHSSLYYYWGQGTQVTVSS”, the “polyreactivity (PSR sort gate)” value was “low polyreactivity”.
In the case of “QVQLVESGGGLVQAGGSLRLSCAASGFTFFYNAMGWYRPAPGKERELGAVITWNGGTTYYADSVKGRFTISRDNAKNTVYLQMNSLKTEDTAVYYCNADGLILYDYWGQGTQVTVSS”, the “polyreactivity (PSR sort gate)” value is reported as “low polyreactivity”.
For “QVQLVESGGGLVQAGGSLRLSCAASGFTFFYYAIRWYRQAPGKEREVVAAISSNGGRTYYADSVKGRFTISRDNAKNTVYLQMYSLKPEDTAVYYCTALRYVVYFDDDYWGQGTQVTVSS”, the “polyreactivity (PSR sort gate)” value was “high polyreactivity”.
With “QVQLVESGGGLVQAGGSLRLSCAASGFTFFYYAMGWYRKAPGKERELVARISSSGGRTYYSDSVKGRFTISRDNAKNTVYLQMNSLKPEDTAVYYCNARYYYYYTRYDYWGQGTQVTVSS” the “polyreactivity (PSR sort gate)” value was “high polyreactivity”.
In the case of “QVQLVESGGGLVQAGGSLRLSCAASGFTFGANVMGWYRQAPGKERELVAAINTRGSRTYYADSVKGRFTISRDHAKNTVYLQMNRLKQEDTAVYYCAAALRKEYDYWGQGTQVTVSS”, the “polyreactivity (PSR sort gate)” value is reported as “high polyreactivity”.
For “QVQLVESGGGLVQAGGSLRLSCAASGFTFGDYAMGWYRQAPGKERELVAAISWSGGRTSYADSVKGRFTISRDNAKNTVYLQMNSLKPEDTAVYYCAARYRYAYTSFPFYYWGQGTQVTVSS”, the “polyreactivity (PSR sort gate)” value was “high polyreactivity”.
In the case of “QVQLVESGGGLVQAGGSLRLSCAASGFTFGDYAMGWYRQAPGKERELVAVISSGGSTYYADSVKGRFTISRDNAKNTVYLQMNSLKPEDTAVYYCAKYVFRVWYHVFEVDYWGQGTQVTVSS”, the “polyreactivity (PSR sort gate)” value is reported as “low polyreactivity”.
For “QVQLVESGGGLVQAGGSLRLSCAASGFTFGENAMGWYRQAPGKERELVATISDSGDSTYYADSVKGRFTISRDNAKNTVYLQMNSLKPEDTAVYYCAAPLPHRGYDEGYWGQGTQVTVSS”, the “polyreactivity (PSR sort gate)” value was “low polyreactivity”.
With “QVQLVESGGGLVQAGGSLRLSCAASGFTFGEYAMGWYRQEPGKERELVATISSGVGTNYADSVKGRFTISRDNAKNTVYLQMNSLKPVDTAVYYCNARGRGSDVRVYVDEGDYWGQGTQVTVSS” the “polyreactivity (PSR sort gate)” value was “low polyreactivity”.
With “QVQLVESGGGLVQAGGSLRLSCAASGFTFGFYAMGWYRQAPGKERELVASITTRGGSTRYADSVKGRFTISRDNAKNTVYLQMNSLKPEDTAVYYCAAQYSYVRYLKRGYGYWGQGTQVTVSS” the “polyreactivity (PSR sort gate)” value was “high polyreactivity”.
In the case of “QVQLVESGGGLVQAGGSLRLSCAASGFTFGGNAMGWYRQAPGKERELVAAISGRGGRTFYADSVKGRFTISRDNAKNTVYLQMNSLKPEDTGVYYCAAYYRYDVGAYDYWGQGTQVTVSS”, the “polyreactivity (PSR sort gate)” value is reported as “high polyreactivity”.
For “QVQLVESGGGLVQAGGSLRLSCAASGFTFGGNPMGWYRQAPGKERELVAAIRRGGSTYYADSVKGRFTISRDNAKNTVYLQMNSLKPEDTAVYYCAAAIPGKYSNDDWGQGTQVTVSS”, the “polyreactivity (PSR sort gate)” value was “high polyreactivity”.
For “QVQLVESGGGLVQAGGSLRLSCAASGFTFGGYAMGWYRQAPGKERELVAAIDSSGGRTYYADSVKGRFTISRDNAKNTVYLQMNSLKPEDTAVYYCNAGNSGWWRYDYDYWGQGTQVTVSS”, the “polyreactivity (PSR sort gate)” value was “high polyreactivity”.
For “QVQLVESGGGLVQAGGSLRLSCAASGFTFGGYAMGWYRQAPGKERELVAAINSIGGTTYYADSVKGRFTISRDNAKNTVYLQMNRLKPEDTAVYYCAAGFYGYARHTWYNYWGQGTQVTVSS”, the “polyreactivity (PSR sort gate)” value was “high polyreactivity”.
For “QVQLVESGGGLVQAGGSLRLSCAASGFTFGGYAMGWYRQAPGKEREMVAGISGSGGRTYYADSVKGRFTISRDNAKNTVYLQMNSLKPEDTAVYYCGADRASPYLEYYWGLGTQVTVSS”, the “polyreactivity (PSR sort gate)” value was “low polyreactivity”.
For “QVQLVESGGGLVQAGGSLRLSCAASGFTFGHNDMGWYRQAPGKERELVASITQSGGSTYYADSVKGRFTISRDNAKNTVYLQMNSLKPEDTAVYYCAKDLYQSAFITKYDYWGQGTQVTVSS”, the “polyreactivity (PSR sort gate)” value was “low polyreactivity”.
For “QVQLVESGGGLVQAGGSLRLSCAASGFTFGHYARGWSRQAPGKERELVAAISRSGGTTSYADSVKGRFTISRDNAKNTVYLQMNSLKTEDTAVYYCNKDYIWARYGGGRDYWGQGTQVTVSS”, the “polyreactivity (PSR sort gate)” value was “low polyreactivity”.
For “QVQLVESGGGLVQAGGSLRLSCAASGFTFGINAMGWYRQAPGKERELVAAINQSGDRTYYADSVKGRFTISRDNAKNTVYLQMNSLKPEDTAVYYCAALSTYRTWYGYWGQGTQVTVSS”, the “polyreactivity (PSR sort gate)” value was “high polyreactivity”.
With “QVQLVESGGGLVQAGGSLRLSCAASGFTFGIYAMGWYRPATVKERELVAAISSSGGSTYYADSVKGRFTISRDNAKHTVYLQMNSLKPEDTAVYYCNAGALYRVYPYRGKLAYITYDSWGQGTQVTVSS” the “polyreactivity (PSR sort gate)” value was “high polyreactivity”.
For “QVQLVESGGGLVQAGGSLRLSCAASGFTFGIYAMGWYRQAPGKERELVADISSGGSTYYADSVKGRFTISRDNAKNTVYLQMNSLKPEDTAVYYCARDSWWYHHYDYWGQGTQVTVSS”, the “polyreactivity (PSR sort gate)” value was “low polyreactivity”.
For “QVQLVESGGGLVQAGGSLRLSCAASGFTFGIYDMGWYRQAPGKERELVAAISWRGVSTYYADSVKGRFRISRDNAKNTVYLQMNSLKPEDTAVYYCNAVDTDGDLYPINYPYDYGYDYWGQGTQVTVSS”, the “polyreactivity (PSR sort gate)” value was “low polyreactivity”.
For “QVQLVESGGGLVQAGGSLRLSCAASGFTFGKYAMGWYRQAPGKERELVAAITWSGGRTYYADSVKGRFTISRDNAKNTVYLQMNSLKPEDTAVYYCNKVYLYSSLARPYDYWGQGTQVTVSS”, the “polyreactivity (PSR sort gate)” value was “high polyreactivity”.
With “QVQLVESGGGLVQAGGSLRLSCAASGFTFGNNAMGWYRQAPGKERELVAAISKRGSSTYYADSVKGRFTISRDNAKNTVYLQMNSLKPEDTAVYYCAAPRSRSRTSRFDYWGQGTQVTVSS” the “polyreactivity (PSR sort gate)” value was “high polyreactivity”.
For “QVQLVESGGGLVQAGGSLRLSCAASGFTFGNNGMGWYRQAPGKERELVASISGGGDSTYYADSVKGRFTISRDNAKYTVYLQMNSLKREDTAVYYCAADYRQEPGYTGYYYWGQGTQVTVSS”, the “polyreactivity (PSR sort gate)” value was “low polyreactivity”.
With “QVQLVESGGGLVQAGGSLRLSCAASGFTFGQYVMGWYRQAPGKERELVAAISFSGGSTYYADSVKGRFTISRDNAKNTVSVQMTSLKPEDTAVYYCAADVNVLYLLRFSHRSNYGYWGQGTQVTVSS” the “polyreactivity (PSR sort gate)” value was “high polyreactivity”.
With “QVQLVESGGGLVQAGGSLRLSCAASGFTFGRKALGWYRQAPGKERELVAAISSSEHFYVRRLLKGRFTISRENAKNTVYLQMNSLKPEDTAVYYCATDNSGEVEYWGQGTQVTVSS” the “polyreactivity (PSR sort gate)” value was “high polyreactivity”.
In the case of “QVQLVESGGGLVQAGGSLRLSCAASGFTFGRNAMGWYRQAPGKERELVAAISRGGSTYYADSVKGRFTISRDNAKNTVYLQMNSLKPEDTAVYYCAAETFLKPQYFKKFGYWGQGTQVTVSS”, the “polyreactivity (PSR sort gate)” value is reported as “high polyreactivity”.
In the case of “QVQLVESGGGLVQAGGSLRLSCAASGFTFGRNTMGWYRQAPGKERELVAAIDSGGNTYADSVKGRFTISRDNAKNTVYLQMNSLKPEDTAVYYCAVDVGEFSSYGYWGQGTQVTVSS”, the “polyreactivity (PSR sort gate)” value is reported as “low polyreactivity”.
With “QVQLVESGGGLVQAGGSLRLSCAASGFTFGRNVIGWYRQAPGKERELVAAISLSGGSTYYADSVKGRFTISRDNAKNTVYLQMNSLKPEDTAVYYCAAGYITWYDYWGQGTQVTVSS” the “polyreactivity (PSR sort gate)” value was “high polyreactivity”.
In the case of “QVQLVESGGGLVQAGGSLRLSCAASGFTFGRYAMGWYRQAPGKEREFVAAITWSGGGTYYADSVKGRFTISRDNAKYTVYLQMYSLKPEDTAVYYCAADRRAYGGGYWGQGTQVTVSS”, the “polyreactivity (PSR sort gate)” value is reported as “high polyreactivity”.
In the case of “QVQLVESGGGLVQAGGSLRLSCAASGFTFGRYAMGWYRQAPGKERELVAAISFSGGRTYYADSVKGRFTISRDNAKNTVYLQMNSLKPEDTAVYYCAARRRQEHVGRSSYARYDYWGQGTQVTVSS”, the “polyreactivity (PSR sort gate)” value is reported as “high polyreactivity”.
In the case of “QVQLVESGGGLVQAGGSLRLSCAASGFTFGRYAMGWYRQAPGKERELVASISRSGGSTNYADSVKGRFTISRDNAKNTVYLQMNSLKPEDTAVYYCAAVKGRRYDYWGQGTQVTVSS”, the “polyreactivity (PSR sort gate)” value is reported as “high polyreactivity”.
With “QVQLVESGGGLVQAGGSLRLSCAASGFTFGRYAMGWYRQAPGKERELVATISRSGGRTYYADSVKGRFTISRDIAKKTVYLQMNSLKPEDTAVYYCAADTRNYPRYDYWGQGTQVTVSS” the “polyreactivity (PSR sort gate)” value was “high polyreactivity”.
With “QVQLVESGGGLVQAGGSLRLSCAASGFTFGRYAMGWYRQAPGKERELVATITRTGSTNYADSVKGRFTISRDNAKNTVYLQMNSLKPEDTAVYYCNAGPDRRVSYYRLLDHWGQGTQVTASS” the “polyreactivity (PSR sort gate)” value was “low polyreactivity”.
With “QVQLVESGGGLVQAGGSLRLSCAASGFTFGRYAMGWYRQAPGKERELVATITRTGSTNYADSVKGRFTISRDNAKNTVYLQMNSLKPEDTAVYYCNAGPDRRVSYYRLLDHWGQGTQVTVSS” the “polyreactivity (PSR sort gate)” value was “low polyreactivity”.
With “QVQLVESGGGLVQAGGSLRLSCAASGFTFGSNAMGWYRQAPGKEREFVAAISGSGDRTYYADSVKGRFTISRDNAKNTVYLQMNSLKPEDTAVYYCATSVRQNYFYSYDDWGQGTQVTVSS” the “polyreactivity (PSR sort gate)” value was “high polyreactivity”.
In the case of “QVQLVESGGGLVQAGGSLRLSCAASGFTFGSNAMGWYRQAPGKEREFVATITKSGGRTYYADSVKGRFTISRDNAKNTVYFQMNSLKPEDTAVYYCAVALSYRTYRKDDYWGQGTQVTVSS”, the “polyreactivity (PSR sort gate)” value is reported as “high polyreactivity”.
With “QVQLVESGGGLVQAGGSLRLSCAASGFTFGSNAMGWYRQAPGKERELVAAINYSGVRTYYADSVKGRFTISRDNAKNTVYLQMNSLKPEDTAVSYCAKKRSKPISFDYWGQGTQVTVSS” the “polyreactivity (PSR sort gate)” value was “high polyreactivity”.
With “QVQLVESGGGLVQAGGSLRLSCAASGFTFGSNAMGWYRQAPGKERELVAAIRSRGGSTYYADSVKGRFTISRDNAKNTVYLQMNSLKPEDTAVYYCAADFIGRDYDYWGQGTQVTVSS” the “polyreactivity (PSR sort gate)” value was “high polyreactivity”.
In the case of “QVQLVESGGGLVQAGGSLRLSCAASGFTFGSNAMGWYRQAPGKERELVAAISSTGSTYYADSVKGRFTISRDNAKNTVYLQMNSLKPEDTAVYYCNADSDTPRYDYWGQGTQVTVSS”, the “polyreactivity (PSR sort gate)” value is reported as “low polyreactivity”.
With “QVQLVESGGGLVQAGGSLRLSCAASGFTFGSNTMGWYRQAPGKERELVAVITWSGGSTYYADSVKGRFTISRDYAKNTVYLQMNSLKPEDTAVYSCAAEATSPLTWFDYWGQGTQVTVSS” the “polyreactivity (PSR sort gate)” value was “low polyreactivity”.
With “QVQLVESGGGLVQAGGSLRLSCAASGFTFGSYAMGWYRPAPGKERELVAGISRGGSTNYADSVKGRFTISRDNAKNTVYLQMNSLKPEDTAVYYCAAYVIGPDQFIYDYWGQGTQVTVSS” the “polyreactivity (PSR sort gate)” value was “low polyreactivity”.
In the case of “QVQLVESGGGLVQAGGSLRLSCAASGFTFGSYAMGWYRQAPGKERELVAAISGRGGSTYYADSVKGRFTISRDNAKNTVYLQMNSLKPEDTAVYYCATDYSRTFDYWGQGTQVTVSS”, the “polyreactivity (PSR sort gate)” value is reported as “high polyreactivity”.
